# Target: mTOR recombinant protein (Origene #TP320457) (UniProt P42345 1-2549)
# Test: pull-down; GST-Tanc2 proteins (full-length, N, C) immobilised on glutathione agarose beads, incubated with mTOR recombinant protein (0.5 µg) or Deptor protein in RIPA buffer for 2 h at 4 °C; washed three times; Coomassie staining or immunoblot
# Details: both partners purified
row,binding result,Binder
1,binds,"GST-Tanc2-C (aa 1359-1990) (domain or fragment, Tanc2, human, aa 1359-1990, in pGEX-6P-1; also called C-terminal region of purified Tanc2; pGST-Tanc2-C; source: E. coli BL-21 (DE3), purified on glutathione sepharose 4B beads) REIQRLLLRVEEECRQMQQPQQPPPPPQPQQQLPEEAEPEPQHEDIYSVQDIFEEEYLEQDVENVSIGLQTEARPSQGLPVIQSPPSSPPHRDSAYISSSPLGSHQVFDFRSSSSVGSPTRQTYQSTSPALSPTHQNSHYRPSPPHTSPAHQGGSYRFSPPPVGGQGKEYPSPPPSPLRRGPQYRASPPAESMSVYRSQSGSPVRYQQETSVSQLPGRPKSPLSKMAQRPYQMPQLPVAVPQQGLRLQPAKAQIVRSNQPSPAVHSSTVIPTGAYGQVAHSMASKYQSSQGDIGVSQSRLVYQGSIGGIVGDGRPVQHVQASLSAGAICQHGGLTKEDLPQRPSSAYRGGVRYSQTPQIGRSQSASYYPVCHSKLDLERSSSQLGSPDVSHLIRRPISVNPNEIKPHPPTPRPLLHSQSVGLRFSPSSNSISSTSNLTPTFRPSSSIQQMEIPLKPAYERSCDELSPVSPTQGGYPSEPTRSRTTPFMGIIDKTARTQQYPHLHQQNRTWAVSSVDTVLSPTSPGNLPQPESFSPPSSISNIAFYNKTNNAQNGHLLEDDYYSPHGMLANGSRGDLLERVSQASSYPDVKVARTLPVAQAYQDNLYRQLSRDSRQGQTSPIKPKRPFVESNV"
2,binds,"GST-Tanc2 (full-length) (natural protein, Tanc2, human, aa 1-1990, subcloned from p3XFlag-Tanc2 (aa 1-1990) into pGEX-6P-1; Kept on the glutathione beads as bait; also called purified Tanc2 protein; pGST-Tanc2 (aa 1-1990); source: E. coli BL-21 (DE3), purified on glutathione sepharose 4B beads) not shown"
3,binds,"GST-Tanc2-N (aa 1-1358) (domain or fragment, Tanc2, human, aa 1-1358, in pGEX-6P-1; also called N-terminal region of purified Tanc2; pGST-Tanc2-N; source: E. coli BL-21 (DE3), purified on glutathione sepharose 4B beads) not shown"

# Reference: PMC8113471, “Tanc2-mediated mTOR inhibition balances mTORC1/2 signaling in the developing mouse brain and human neurons” (Nature Communications, 2021)
